Assay results published in US20230025572A1 (published 2023).

Assays:
[1] = biological target: T1, MAGE-B16 peptide on HLA-A*02:01 (human); assay: cytokine release
T1 peptide: KVLEFVAKV
Experimental: (§1) FIG. 18 T2 cells were loaded with 10-5 mol/l MAGE-A1278 (SEQ ID NO: 11) or the 2 most similar epitopes in the human proteome (MAGE-B16 and MAGE-B5, SEQ ID NOs: 54 and 55, respectively) differing in only 2 amino acids from MAGE-A1278 and co-cultured with TCR modified T cells. Functional response was assessed based on IFNγ production.

[2] = biological target: T2, MAGE-B5 peptide on HLA-A*02:01 (human); assay: cytokine release
T2 peptide: KVLEYLAKV
Experimental: as §1

[3] = biological target: T3, MAGE-A1 peptide on HLA-A*02:01 (human); assay: multimer staining
T3 peptide: KVLEYVIKV

B1: TCR 1405 (TCR, V domains shown)
Valpha: GENVEQHPSTLSVQEGDSAVIKCTYSDSASNYFPWYKQELGKGPQLIIDIRSNVGEKKDQRIAVTLNKTAKHFSLHITETQPEDSAVYFCAARPNSGNTPLVFGKGTRLSVIA
Vbeta: SAVISQKPSRDICQRGTSLTIQCQVDSQVTMMFWYRQQPGQSLTLIATANQGSEATYESGFVIDKFPISRPNLTFSTLTVSNMSPEDSSIYLCSVEQDTNTGELFFGEGSRLTVL
- binding result [1]: no recognition
- binding result [2]: no recognition
- binding result [3]: recognises

B2: TCR 1367 (TCR, V domains shown)
Valpha: GEDVEQSLFLSVREGDSSVINCTYTDSSSTYLYWYKQEPGAGLQLLTYIFSNMDMKQDQRLTVLLNKKDKHLSLRIADTQTGDSAIYFCAESIGSNSGYALNFGKGTSLLVTP
Vbeta: DVKVTQSSRYLVKRTGEKVFLECVQDMDHENMFWYRQDPGLGLRLIYFSYDVKMKEKGDIPEGYSVSREKKERFSLILESASTNQTSMYLCASRGLAGYEQYFGPGTRLTVT
- binding result [1]: no recognition
- binding result [2]: no recognition
- binding result [3]: recognises

B3: TCR 1705 (TCR, V domains shown)
Valpha: QKEVEQDPGPLSVPEGAIVSLNCTYSNSAFQYFMWYRQYSRKGPELLMYTYSSGNKEDGRFTAQVDKSSKYISLFIRDSQPSDSATYLCAMSDTGNQFYFGTGTSLTVIP
Vbeta: AAGVIQSPRHLIKEKRETATLKCYPIPRHDTVYWYQQGPGQDPQFLISFYEKMQSDKGSIPDRFSAQQFSDYHSELNMSSLELGDSALYFCASSFRGGGANVLTFGAGSRLTVL
- binding result [1]: no recognition
- binding result [2]: no recognition
- binding result [3]: recognises
